Results from publication PMC10083539, “Structural insights into plasmalemma vesicle-associated protein (PLVAP): Implications for vascular endothelial diaphragms and fenestrae” (Proceedings of the National Academy of Sciences of the …, 2023).

Legend:
[1] = molecular target: the molecule itself; test: SDS-PAGE, reducing vs nonreducing; purified fragments from E. coli SHuffle after 3C cleavage; electrophoretic mobilities in reducing and nonreducing gels; shows disulfide-linked dimers
[2] = molecular target: T1, hGH fusion with PLVAP ECD, N-terminal deletion C (fusion protein C of Fig. 9) (Mus musculus, UniProt Q91VC4); test: far-Western, overlay or dot blot; immunoblot: hGH-PLVAP deletion fusions in conditioned medium resolved by SDS-PAGE, blots probed with mAb MECA-32 and rabbit anti-hGH, fluorescent secondary antibodies; settings: one partner purified
T1 construct: PLVAP, mouse; extends to the C terminus of PLVAP; Limit may be off by one residue; source: HEK/293T, transiently transfected, secreted, in serum-free conditioned medium; not shown: hGH (human growth hormone), N-terminal, kept

[3] = molecular target: T2, hGH fusion with PLVAP ECD from amino acid 143, C-terminal deletion G (fusion protein G of Fig. 9) (Mus musculus, UniProt Q91VC4); test: as above; settings: one partner purified
T2 construct: PLVAP, mouse; N terminus at amino acid 143 (QEQLKE...); Limit may be off by one residue; source: HEK/293T, transiently transfected, secreted, in serum-free conditioned medium; not shown: hGH (human growth hormone), N-terminal, kept

[4] = molecular target: T3, hGH fusion with PLVAP ECD from amino acid 104 to the C terminus (fusion protein A of Fig. 9) (Mus musculus, UniProt Q91VC4); test: as above; settings: one partner purified
T3 construct: PLVAP, mouse; N terminus at amino acid 104 (TRREME...), extends to the C terminus of PLVAP; source: HEK/293T, transiently transfected, secreted, in serum-free conditioned medium; not shown: hGH (human growth hormone), N-terminal, kept

[5] = molecular target: T4, AP–PLVAP CC2, alkaline phosphatase fused to PLVAP CC2 (Mus musculus, UniProt Q91VC4); test: ELISA; MECA-32/hIgG immobilised on protein A-coated 96-well plates (4 °C overnight); conditioned media with AP-PLVAP CC2, 25 °C, 1 h; 10 mM HEPES pH 7.5, 0.15 M NaCl, 0.05% Tween-20 washes; colorimetric AP reaction (BluePhos); settings: one partner purified
T4 construct: PLVAP, mouse, CC2; The plasmid codes for AP followed by a Myc tag and an 8xHis tag; source: HEK/293T, in conditioned media

[6] = molecular target: the molecule itself; test: crystal structure; PLVAP CC1; crystal form I (P212121, 0.2 M sodium malonate pH 5.0, 20% PEG3350, sulfur SAD) and crystal form II (I212121, 0.1 M sodium acetate pH 5.0, 15% PEG 4000), 21 °C

B1: PLVAP extracellular domain (full-length ECD), residues 52 to 438 (domain or fragment, mouse, UniProt Q91VC4 52-438, looked up)
chain: HATTESSLRATEIRADSLYSQVVGLSASQANLSKQLNISLLVKETVMQQLLTTRREMERINASFRQCQGDLITYINYNRFIAAIILSEKQCQEQLKEVNKTCEALLFKLGEKVKTLEMEVAKEKAVCSKDKESLLAGKRQTEEQLEACGKARERQQQEQQVTEENLRKVQSLCIPLDQEKFQADVLSAWRDSLIYRTLETLPYHYQLMPEYASLRRTCESLPGIMTTKIEELARGLRAGIERVTRENAELRRQKLELERAAQAAQEARARAGTEAQARETQLRAECARQTQLALEEKAALRAQRDNLERELEARKRELEQLRTEVDVRISALDTCVKAKSLPAVPPRVSGPPPNPPPIDPASLEEFKKRILESQRLPVVNPAAQPSG
notes: plasmalemma vesicle-associated protein (PLVAP), mouse, extracellular domain, residues 52 to 438; also called PLVAP ECD; pXG61; source: E. coli SHuffle T7, purified (IMAC, 3C protease cleavage, IMAC, SEC); not shown: thioredoxin (E. coli TrxA), N-terminal, cleaved; 8xHis, N-terminal, cleaved
**Q.** Does B1 bind [1]?
**A.** Result: binds

B2: MECA-32, anti-PLVAP monoclonal antibody (antibody, V domains shown)
VH: EVQLVESGGGLVQPGRSMKLSCAASGFTFSDYYMAWVRQAPMKGLKWVASISYEGNKTYYGDSVKGRFTISRDNAKSILYLQMNSLKSEDTATYYCARQSYSSYIFDYWGQGVMVTVSS
VL: DIQMTQTPSSMSASLGERVTISCGTSQGVNIFLNWYQQKPDGTIKPLIFFTSHLQSGVPSRFSGSGSGTAYSLTISSLEPEDFAVYYCQQYDSSPPTFGGGTKLYLK
notes: heavy-chain constant region of the hybridoma antibody; light-chain constant region of the hybridoma antibody; the blots used the bought antibody of the same clone name; also called rat mAb MECA-32 (553849; BD Biosciences); source: bought: BD Biosciences (553849)
**Q.** Which results are given for B2?
**A.** binding result [2]: binds; binding result [3]: binds; binding result [4]: binds

B3: MECA-32/hIgG, engineered MECA-32 antibody with human constant regions (antibody, V domains shown)
VH: B2 VH
VL: B2 VL
notes: mature VH of MECA-32; human heavy-chain IgG constant region (CH1, CH2 and CH3) with an HRV 3C protease cleavage site between CH1 and CH2; mature VL of MECA-32; human light-chain constant region (CL); Chimeric IgG; held on protein A-coated wells in the assay; also called MECA-32/IgG; engineered MECA-32 Ab; source: HEK/293T, cotransfected heavy- and light-chain plasmids, purified from conditioned …
**Q.** Does B3 bind [5]?
**A.** Result: binds

B4: PLVAP CC2, residues 270 to 395 (domain or fragment, mouse, UniProt Q91VC4 270-395, looked up)
chain: ESLPGIMTTKIEELARGLRAGIERVTRENAELRRQKLELERAAQAAQEARARAGTEAQARETQLRAECARQTQLALEEKAALRAQRDNLERELEARKRELEQLRTEVDVRISALDTCVKAKSLPAV
notes: PLVAP, mouse, coiled-coil segment CC2, residues 270 to 395; also called pXG52; source: E. coli SHuffle T7, purified (IMAC, 3C protease cleavage, IMAC, SEC); not shown: thioredoxin (E. coli TrxA), N-terminal, cleaved; 8xHis, N-terminal, cleaved
**Q.** Does B4 bind [1]?
**A.** Result: binds

B5: PLVAP CC1, residues 141 to 229 (domain or fragment, mouse, UniProt Q91VC4 141-229, looked up)
chain: QCQEQLKEVNKTCEALLFKLGEKVKTLEMEVAKEKAVCSKDKESLLAGKRQTEEQLEACGKARERQQQEQQVTEENLRKVQSLCIPLDQ
notes: PLVAP, mouse, coiled-coil segment CC1, residues 141 to 229 (89 amino acids); Parallel dimer with five interchain disulfide bonds; also called pPMS1170; source: E. coli SHuffle T7, purified (IMAC, 3C protease cleavage, IMAC, SEC); not shown: thioredoxin (E. coli TrxA), N-terminal, cleaved; 8xHis, N-terminal, cleaved
**Q.** With B5 as the binder, how does the “stoichiometry N” value [6] read?
**A.** The value was 2.
